Source: US10829540 (AstraZeneca / MedImmune, dated 2020)

T1: human P2X4 (human, UniProt Q99571 1-388)
T1 sequence (looked up): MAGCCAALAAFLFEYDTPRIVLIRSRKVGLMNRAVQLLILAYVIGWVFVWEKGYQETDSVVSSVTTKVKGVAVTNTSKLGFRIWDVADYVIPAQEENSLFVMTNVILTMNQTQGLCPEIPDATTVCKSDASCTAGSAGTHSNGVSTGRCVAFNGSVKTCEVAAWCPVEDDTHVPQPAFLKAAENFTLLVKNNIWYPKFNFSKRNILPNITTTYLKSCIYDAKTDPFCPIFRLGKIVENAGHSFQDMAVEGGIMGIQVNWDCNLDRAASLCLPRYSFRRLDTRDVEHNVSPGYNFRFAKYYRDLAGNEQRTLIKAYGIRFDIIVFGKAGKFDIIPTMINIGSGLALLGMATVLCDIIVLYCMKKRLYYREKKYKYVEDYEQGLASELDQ


Key:
human P2X4 [1] = molecular target: T1, human P2X4; assay: cell-based or functional assay
human P2X4 [2] = molecular target: T1, human P2X4; assay: cell-based or functional assay; remark: listed apart in the source

Row | IC50 (nM), inhibition of human P2X4 currents in electrophysiology (human P2X4 [1]) [nM] | IC50, inhibition of human P2X4 currents in electrophysiology (human P2X4 [2]) [nM] | Binder
1 | 50 |  | Antibody 3 (antibody, V domains shown) VH: not shown VL: SSELTQDPAASVALGQTVTITCQGDSLRSYYASWYQQKPGQAPVLVFYGKNIRPSGIPDRFSGSDSRDTASLTITGAQADDEADYYCNSRDTSGNVVFGGGTKVTVL
2 | 19.6 |  | Antibody 1 (antibody, V domains shown) VH: not shown VL: SYVLTQPPSVSVSPGQTATITCSGDTLPQRYAYWYQQKPGQAPILLIYKDSERPSGIPDRFSGSSSGTTVALTISGVQAEDEADYYCQSTDTSGVVFGGGTKVTVL
3 | 3.9 | 3.8 | Antibody 4 (antibody, V domains shown) VH: not shown VL: QSVLTQPPSVSLSPGQTARITCSGDVLSKQFGYWYQQKPGQAPVVVIYNDSERPSGIPERFSGSSSGTTVTLTITGVQAEDEADYYCQSADSSGTVLFGGGTKLTVL
